Residue numbers refer to the chain shown, from its start.
Tested on: Psl (enriched carbohydrate purified from PAO1ΔwbpL/algD/pelA)
Assay: Psl capture binding assay (FORTEBIO OCTET 384)
Design: species or system Pseudomonas aeruginosa
Settings: FIG. 3K; for capture of Psl antigen by biosensor-bound antibody: antibody bound to aminopropylsilane biosensors
Protocol: To confirm that all of the antibodies bound to the same antigen, a Psl capture binding assay was performed using a FORTEBIO® OCTET® 384 instrument as described above. The antigen was proteinase K-treated enriched carbohydrate purified from PAO1ΔwbpL/algD/pelA (O-antigen-, alginate- and Pel exopolysaccharide-deficient). Individual antibodies were bound to aminopropylsilane biosensors followed by blocking and the addition of the enriched carbohydrate antigen. After washing to remove unbound antigen, binding of unlabelled mAbs to captured antigen was assessed.

B1: WapR-007: antibody, VH SEQ ID NO: 13 and VL SEQ ID NO: 14 (antibody, V domains shown)
VH: EVQLVQSGADVKKPGASVRVTCKASGYTFTGHNIHWVRQAPGQGLEWMGWINPDSGATSYAQKFQGRVTMTRDTSITTAYMDLSRLRSDDTAVYYCATDTLLSNHWGQGTLVTVSS
VL: SSELTQDPAVSVALGQTVRITCQGDSLRSYYTNWFQQKPGQAPLLVVYAKNKRPPGIPDRFSGSSSGNTASLTITGAQAEDEADYYCHSRDSSGNHVVFGGGTKLTVL
modifications: WapR-007 VH; WapR-007 VL
reactivity of unlabelled mAb to captured Psl: Minimal reactivity
capture of Psl antigen by biosensor-bound antibody: capable of capturing antigen

B2: WapR-001: anti-Psl antibody, VH SEQ ID NO: 5 and VL SEQ ID NO: 6 (antibody, V domains shown)
VH: EVQLLESGGGLVQPGGSLRLSCSASGFTFSRYPMHWVRQAPGKGLEYVSDIGTNGGSTNYADSVKGRFTISRDNSKNTVYLQMSSLRAEDTAVYHCVAGIAAAYGFDVWGQGTMVTVSS
VL: QAGLTQPASVSGSPGQSITISCTGTSSDIATYNYVSWYQQHPGKAPKLMIYEGTKRPSGVSNRFSGSKSGNTASLTISGLQAEDEADYYCSSYARSYTYVFGTGTELTVL
modifications: WapR-001 VH; WapR-001 VL
reactivity of unlabelled mAb to captured Psl: reacted
capture of Psl antigen by biosensor-bound antibody: capable of capturing antigen

B3: WapR-002: anti-Psl antibody, VH SEQ ID NO: 7 and VL SEQ ID NO: 8 (antibody, V domains shown)
VH: QVQLVQSGGGLVQPGGSLRLSCSASGFTFSSYPMHWVRQAPGKGLDYVSDISPNGGSTNYADSVKGRFTISRDNSKNTLFLQMSSLRAEDTAVYYCVMGLVPYGFDIWGQGTLVTVSS
VL: QTVVTQPASVSGSPGQSITISCTGTSSDVGGYNYVSWYQQHPGKAPKLMIYEVSNRPSGVSNHFSGSKSGNTASLTISGLQAEDEADYYCSSYTTSSTYVFGTGTKVTVL
modifications: WapR-002 VH; WapR-002 VL
reactivity of unlabelled mAb to captured Psl: reacted
capture of Psl antigen by biosensor-bound antibody: capable of capturing antigen

B4: WapR-003: anti-Psl antibody, VH SEQ ID NO: 9 and VL SEQ ID NO: 10 (antibody, V domains shown)
VH: B3 VH with V2M, S57A, L79V, F80Y, I107N, L113M
VL: QTVVTQPASVSASPGQSITISCAGTSGDVGNYNFVSWYQQHPGKAPKLLIYEGSQRPSGVSNRFSGSRSGNTASLTISGLQAEDEADYYCSSYARSYTYVFGTGTKLTVL
modifications: WapR-003 VH; WapR-003 VL
reactivity of unlabelled mAb to captured Psl: reacted
capture of Psl antigen by biosensor-bound antibody: capable of capturing antigen

Reference: US10370436B2, “Anti-pseudomonas Psl binding molecules and uses thereof” (priority 2011, dated 2019)
